Like-named read-outs stand apart in the source and are kept apart here.

In test [1] the target is T1, human NRP2 (human, UniProt O60462).
T1 chain: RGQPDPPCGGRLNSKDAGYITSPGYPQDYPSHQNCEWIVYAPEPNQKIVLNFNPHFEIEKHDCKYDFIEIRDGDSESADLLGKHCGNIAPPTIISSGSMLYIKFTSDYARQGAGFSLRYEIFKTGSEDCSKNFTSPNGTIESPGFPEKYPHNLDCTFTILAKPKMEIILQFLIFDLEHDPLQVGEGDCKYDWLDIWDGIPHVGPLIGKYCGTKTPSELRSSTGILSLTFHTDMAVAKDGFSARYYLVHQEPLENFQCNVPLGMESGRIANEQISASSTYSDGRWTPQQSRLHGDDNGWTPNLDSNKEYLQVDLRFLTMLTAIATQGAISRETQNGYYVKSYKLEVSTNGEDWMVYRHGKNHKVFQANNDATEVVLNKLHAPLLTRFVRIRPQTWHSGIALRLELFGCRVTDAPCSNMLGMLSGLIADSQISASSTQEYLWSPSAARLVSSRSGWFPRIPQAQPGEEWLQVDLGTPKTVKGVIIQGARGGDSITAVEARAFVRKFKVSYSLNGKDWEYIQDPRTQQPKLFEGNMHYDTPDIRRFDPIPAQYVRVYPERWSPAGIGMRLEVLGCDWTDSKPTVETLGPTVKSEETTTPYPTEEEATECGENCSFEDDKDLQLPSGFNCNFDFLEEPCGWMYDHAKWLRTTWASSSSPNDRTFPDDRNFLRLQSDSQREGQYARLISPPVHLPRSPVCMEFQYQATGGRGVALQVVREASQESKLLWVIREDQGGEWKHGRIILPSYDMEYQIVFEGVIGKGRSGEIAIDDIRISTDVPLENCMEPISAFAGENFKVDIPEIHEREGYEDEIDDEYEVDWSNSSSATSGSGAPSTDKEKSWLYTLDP
The test can be described thus: SPR up to 500 nM.

The target in the next test is BSA (bovine, UniProt P02769). The test can be described thus: SPR up to 500 nM.
For test [2], the target named is T2, ErbB2-ECD (human, UniProt P04626). The test can be described thus: SPR up to 500 nM.
For test [3], the target named is T3, murine NRP2 (mouse, UniProt O35375).
T3 chain: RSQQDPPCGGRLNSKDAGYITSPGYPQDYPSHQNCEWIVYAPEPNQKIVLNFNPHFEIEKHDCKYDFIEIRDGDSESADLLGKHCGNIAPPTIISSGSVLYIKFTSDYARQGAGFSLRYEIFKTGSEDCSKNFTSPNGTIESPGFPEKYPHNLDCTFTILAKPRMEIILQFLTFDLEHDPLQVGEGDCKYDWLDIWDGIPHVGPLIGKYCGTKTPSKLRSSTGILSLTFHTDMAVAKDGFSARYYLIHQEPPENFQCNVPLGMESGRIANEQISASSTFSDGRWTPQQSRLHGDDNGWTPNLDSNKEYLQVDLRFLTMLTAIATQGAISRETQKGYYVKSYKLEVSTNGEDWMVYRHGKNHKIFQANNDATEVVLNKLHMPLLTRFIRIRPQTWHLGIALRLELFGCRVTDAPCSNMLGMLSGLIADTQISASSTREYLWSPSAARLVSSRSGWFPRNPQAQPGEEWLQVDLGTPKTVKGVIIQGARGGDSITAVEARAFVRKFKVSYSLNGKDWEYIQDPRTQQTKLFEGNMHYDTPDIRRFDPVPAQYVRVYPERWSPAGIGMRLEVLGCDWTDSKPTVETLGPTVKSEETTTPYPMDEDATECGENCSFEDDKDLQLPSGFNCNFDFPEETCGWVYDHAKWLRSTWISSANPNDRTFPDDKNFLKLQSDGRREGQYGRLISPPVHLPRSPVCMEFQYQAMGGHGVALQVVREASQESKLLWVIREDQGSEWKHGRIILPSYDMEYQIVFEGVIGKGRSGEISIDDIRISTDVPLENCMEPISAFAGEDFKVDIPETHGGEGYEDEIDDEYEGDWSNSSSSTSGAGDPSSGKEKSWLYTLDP
As to the kind of experiment: SPR up to 500 nM.

Test [4] addresses T3, murine NRP2. The test can be described thus: SPR. Background: In SPR one partner is held on a chip, and binding of the other changes the refractive index at the surface.
Test [5] addresses T1, human NRP2. The test can be described thus: SPR.
For test [6], the target named is T2, ErbB2-ECD. As to the kind of experiment: SPR.
For test [7], the target named is T4, murine NRP1 (mouse, UniProt P97333).
T4 chain: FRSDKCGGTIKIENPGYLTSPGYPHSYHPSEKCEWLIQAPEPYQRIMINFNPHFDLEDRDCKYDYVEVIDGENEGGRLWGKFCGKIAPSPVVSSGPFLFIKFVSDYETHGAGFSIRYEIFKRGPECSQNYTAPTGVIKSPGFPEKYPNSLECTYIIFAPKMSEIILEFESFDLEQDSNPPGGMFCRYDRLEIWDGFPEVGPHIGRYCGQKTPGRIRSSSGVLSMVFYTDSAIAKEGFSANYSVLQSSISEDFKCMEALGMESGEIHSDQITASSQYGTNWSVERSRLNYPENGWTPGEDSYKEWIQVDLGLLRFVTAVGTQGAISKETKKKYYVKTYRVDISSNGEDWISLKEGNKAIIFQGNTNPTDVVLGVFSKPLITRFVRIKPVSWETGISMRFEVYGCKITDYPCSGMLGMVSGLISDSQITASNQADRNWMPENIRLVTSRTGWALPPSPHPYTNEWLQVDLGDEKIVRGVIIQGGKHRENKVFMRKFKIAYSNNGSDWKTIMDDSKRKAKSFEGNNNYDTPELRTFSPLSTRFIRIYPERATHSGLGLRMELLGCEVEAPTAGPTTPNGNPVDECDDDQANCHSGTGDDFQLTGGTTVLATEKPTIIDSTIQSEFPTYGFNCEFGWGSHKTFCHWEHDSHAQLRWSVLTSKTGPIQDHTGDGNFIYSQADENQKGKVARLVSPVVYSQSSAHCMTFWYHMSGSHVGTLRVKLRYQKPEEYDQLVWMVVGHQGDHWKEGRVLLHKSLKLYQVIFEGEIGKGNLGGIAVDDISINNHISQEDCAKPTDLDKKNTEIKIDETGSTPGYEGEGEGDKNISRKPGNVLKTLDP
As to the kind of experiment: SPR 25C.

In test [8] the target is T5, human NRP1 (human, UniProt O14786). The test can be described thus: SPR 25C.
The target in test [9] is T4, murine NRP1. As to the kind of experiment: competition phage ELISA. (In general: An ELISA detects its analyte on a solid surface through an enzyme-linked reagent.)
Test [10] addresses T5, human NRP1. As to the kind of experiment: competition phage ELISA.
The target in test [11] is T4, murine NRP1. The test can be described thus: competition phage ELISA.
Test [12] concerns the target T5, human NRP1. As to the kind of experiment: competition phage ELISA. The source holds these as a separate data set.

BSA, sequence (P02769 25-607): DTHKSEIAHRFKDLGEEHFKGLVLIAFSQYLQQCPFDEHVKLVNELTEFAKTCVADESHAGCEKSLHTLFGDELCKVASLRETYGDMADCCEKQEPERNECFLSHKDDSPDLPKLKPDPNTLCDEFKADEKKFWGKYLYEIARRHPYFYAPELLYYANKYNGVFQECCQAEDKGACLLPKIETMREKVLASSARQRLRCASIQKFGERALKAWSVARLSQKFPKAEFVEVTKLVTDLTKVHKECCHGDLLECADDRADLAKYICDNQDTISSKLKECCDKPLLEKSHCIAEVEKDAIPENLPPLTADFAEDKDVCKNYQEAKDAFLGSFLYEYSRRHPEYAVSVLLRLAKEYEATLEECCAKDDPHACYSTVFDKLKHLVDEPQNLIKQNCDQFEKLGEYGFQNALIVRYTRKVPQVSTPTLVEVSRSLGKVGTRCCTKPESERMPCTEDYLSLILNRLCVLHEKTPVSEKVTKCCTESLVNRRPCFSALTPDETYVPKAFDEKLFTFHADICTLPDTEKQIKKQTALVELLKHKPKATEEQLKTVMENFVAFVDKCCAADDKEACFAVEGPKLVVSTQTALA

B1: YW64.3 (antibody, V domains shown)
VH: EVQLVESGGGLVQPGGSLRLSCAASGFSFSSEPISWVRQAPGKGLEWVSSITGKNGYTYYADSVKGRFTISADTSKNTAYLQMNSLRAEDTAVYYCARWGKKVYGMDVWGQGTLVTVSS
VL: DIQMTQSPSSLSASVGDRVTITCRASQSISSYLAWYQQKPGKAPKLLIYGASSRASGVPSRFSGSGSGTDFTLTISSLQPEDFATYYCQQYMSVPITFGQGTKVEIKR
For the molecule B1, the binding result in the test with human NRP2 [1], with BSA, with ErbB2-ECD [2] and with murine NRP2 [3] was “no binding” throughout.

B2: YW107.4.87 (antibody, V domains shown)
VH: EVQLVESGGGLVQPGGSLRLSCAASGFTFSSYAMSWVRQAPGKGLEWVSQISPAGGYTNYADSVKGRFTISADTSKNTAYLQMNSLRAEDTAVYYCARELPYYRMSKVMDVWGQGTLVTVSS
VL: DIQMTQSPSSLSASVGDRVTITCRASQYFSSYLAWYQQKPGKAPKLLIYGASSRASGVPSRFSGSGSGTDFTLTISSLQPEDFATYYCQQYLGSPPTFGQGTKVEIKR
Take B2: the binding result in the test with murine NRP2 [4] and with human NRP2 [5] was “no binding” each time.

B3: YW107.4 (antibody, V domains shown)
VH: EVQLVESGGGLVQPGGSLRLSCAASGFTFSSYAMSWVRQAPGKGLEWVSQISPAGGYTNYADSVKGRFTISADTSKNTAYLQMNSLRAEDTAVYYCARELPYYRMSKVMDVWGQGTLVTVSS
VL: DIQMTQSPSSLSASVGDRVTITCRASQSISSYLAWYQQKPGKAPKLLIYGASSRASGVPSRFSGSGSGTDFTLTISSLQPEDFATYYCQQYYSSPLTFGQGTKVEIKR
In the case of B3, the binding result with ErbB2-ECD [6], with human NRP2 [1], in the test with BSA and with murine NRP2 [3] was “no binding” in each case. In addition, the Kd (in general, the equilibrium constant for the complex coming apart) in the test with murine NRP1 [7] came to 11 nM; with human NRP1 [8], 5 nM. Also, the IC50 (in general, the concentration that inhibits the measured activity by half) in the test with murine NRP1 [9] turned out to be 38 nM; with human NRP1 [10], 6.1 nM; with murine NRP1 [11] it was 38 nM; with human NRP1 [12], 6.1 nM.

Source of the values: patent US8211429 (dated 2012).
